Among the data in publication PMC5834530 are Kd, stoichiometry N and dH values, retold here.

Experiment [1] addresses MGG_01005 (Magnaporthe oryzae dynein light chain Tctex-type 1, dynlt1/3), wild type, recombinant (Magnaporthe oryzae) (UniProt G4NCW2). The experiment in a line: ITC. Background: ITC needs no label: the signal is the heat of the interaction.
The target is the same in experiment [2]. The experiment in a line: ITC. This is another data set of the same source.
The target is the same in experiment [3]. The experiment in a line: SEC; gel filtration chromatography of MGG_01005 (Supplementary Figure S3). (In general: Size exclusion chromatography separates by hydrodynamic size, large species first.)
Experiment [4] shares this target. The experiment in a line: AUC.

Regarding MoDyn1I2^117–150 peptide, in experiment [1], the dissociation constant Kd (in general, the free concentration of one partner at which half of the binding sites on the other are occupied at equilibrium, for simple one-to-one binding) was 5.39 µM and the stoichiometry N (as a rule, a count of units in the complex or per binding partner) is 0.55. Also, the stoichiometry N in experiment [2] was 0.4 to 0.7.

Regarding “MGG_01005 (Magnaporthe oryzae dynein light chain Tctex-type 1, dynlt1/3), wild type, recombinant (from UniProt G4NCW2 1-153) (natural protein)”, the stoichiometry N in experiment [3] and in experiment [4] was 2 in each case.

Consider MoDyn1I2^122–141 peptide, for which, in experiment [1], the dissociation constant (Kd) was found to be 15.2 µM, the dH is -3.28 kcal/mol and the stoichiometry N was found to be 1.13.
